The target in experiment [1] is T1, TcdB-CROPs (TcdB1827-2366) (Clostridioides difficile strain VPI10463, UniProt P18177 1827-2366).
T1 construct: range 1827-2366; also called TcdB CROPS domain; TcdBX-Y
As to the kind of experiment: ELISA on isolated toxin domains (domain specificity). A general note: ELISA stands for enzyme-linked immunosorbent assay.

For experiment [2], the target named is full-length TcdB (TcdB1-2366), VPI10463 (Clostridioides difficile strain VPI10463, UniProt P18177 1-2366). As to the kind of experiment: cell-based or functional assay.
For experiment [3], the target named is T2, full-length TcdA (TcdA1-2710) (Clostridioides difficile strain VPI10463, UniProt P16154 1-2710).
T2 construct: range 1-2710; also called rTcdA; purified, recombinant TcdA
As to the kind of experiment: sandwich ELISA, capture A2B10, biotinylated detection A1A6.

Experiment [4] has as its target T2, full-length TcdA (TcdA1-2710). Briefly: cell-based or functional assay.
A further experiment has as its target T3, TcdA-GTD (TcdA1-542) (Clostridioides difficile strain VPI10463, UniProt P16154 1-542).
T3 construct: range 1-542; also called TcdA glucosyltransferase domain
Briefly: ELISA-like screen of clone lysates on isolated domains.

A further experiment addresses T4, TcdA1-1832 (Clostridioides difficile strain VPI10463, UniProt P16154 1-1832).
T4 construct: range 1-1832; also called TcdA1-1832 (no CROPs domain)
Briefly: negative stain EM with single particle averaging.

A further experiment has as its target T5, TcdA1-1809 (Clostridioides difficile strain VPI10463, UniProt P16154 1-1809).
T5 construct: range 1-1809
As to the kind of experiment: ELISA on isolated toxin domains (domain specificity).

In experiment [5] the target is T2, full-length TcdA (TcdA1-2710). As to the kind of experiment: sandwich ELISA on filtered culture supernatant (VPI10463), FIG. 3J.

Changes are numbered by the printed parent chain. Where only a bound is given, the exact number is not on record here.

T3 sequence (P16154 1-542 limits assumed): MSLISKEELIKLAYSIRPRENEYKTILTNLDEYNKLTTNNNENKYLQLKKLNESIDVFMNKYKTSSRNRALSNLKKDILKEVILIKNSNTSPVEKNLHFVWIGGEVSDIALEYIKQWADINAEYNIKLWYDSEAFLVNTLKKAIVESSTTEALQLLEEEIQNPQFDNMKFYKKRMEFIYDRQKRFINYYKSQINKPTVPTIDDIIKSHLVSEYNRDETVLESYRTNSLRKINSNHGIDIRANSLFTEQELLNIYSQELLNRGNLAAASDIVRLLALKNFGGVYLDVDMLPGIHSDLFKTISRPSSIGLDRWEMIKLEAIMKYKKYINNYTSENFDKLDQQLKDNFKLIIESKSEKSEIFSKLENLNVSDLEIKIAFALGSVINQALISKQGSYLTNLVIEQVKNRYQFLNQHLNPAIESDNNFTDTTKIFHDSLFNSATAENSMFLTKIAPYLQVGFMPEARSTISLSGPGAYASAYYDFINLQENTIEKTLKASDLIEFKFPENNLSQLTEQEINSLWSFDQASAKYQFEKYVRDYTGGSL
T2 sequence (P16154 whole entry): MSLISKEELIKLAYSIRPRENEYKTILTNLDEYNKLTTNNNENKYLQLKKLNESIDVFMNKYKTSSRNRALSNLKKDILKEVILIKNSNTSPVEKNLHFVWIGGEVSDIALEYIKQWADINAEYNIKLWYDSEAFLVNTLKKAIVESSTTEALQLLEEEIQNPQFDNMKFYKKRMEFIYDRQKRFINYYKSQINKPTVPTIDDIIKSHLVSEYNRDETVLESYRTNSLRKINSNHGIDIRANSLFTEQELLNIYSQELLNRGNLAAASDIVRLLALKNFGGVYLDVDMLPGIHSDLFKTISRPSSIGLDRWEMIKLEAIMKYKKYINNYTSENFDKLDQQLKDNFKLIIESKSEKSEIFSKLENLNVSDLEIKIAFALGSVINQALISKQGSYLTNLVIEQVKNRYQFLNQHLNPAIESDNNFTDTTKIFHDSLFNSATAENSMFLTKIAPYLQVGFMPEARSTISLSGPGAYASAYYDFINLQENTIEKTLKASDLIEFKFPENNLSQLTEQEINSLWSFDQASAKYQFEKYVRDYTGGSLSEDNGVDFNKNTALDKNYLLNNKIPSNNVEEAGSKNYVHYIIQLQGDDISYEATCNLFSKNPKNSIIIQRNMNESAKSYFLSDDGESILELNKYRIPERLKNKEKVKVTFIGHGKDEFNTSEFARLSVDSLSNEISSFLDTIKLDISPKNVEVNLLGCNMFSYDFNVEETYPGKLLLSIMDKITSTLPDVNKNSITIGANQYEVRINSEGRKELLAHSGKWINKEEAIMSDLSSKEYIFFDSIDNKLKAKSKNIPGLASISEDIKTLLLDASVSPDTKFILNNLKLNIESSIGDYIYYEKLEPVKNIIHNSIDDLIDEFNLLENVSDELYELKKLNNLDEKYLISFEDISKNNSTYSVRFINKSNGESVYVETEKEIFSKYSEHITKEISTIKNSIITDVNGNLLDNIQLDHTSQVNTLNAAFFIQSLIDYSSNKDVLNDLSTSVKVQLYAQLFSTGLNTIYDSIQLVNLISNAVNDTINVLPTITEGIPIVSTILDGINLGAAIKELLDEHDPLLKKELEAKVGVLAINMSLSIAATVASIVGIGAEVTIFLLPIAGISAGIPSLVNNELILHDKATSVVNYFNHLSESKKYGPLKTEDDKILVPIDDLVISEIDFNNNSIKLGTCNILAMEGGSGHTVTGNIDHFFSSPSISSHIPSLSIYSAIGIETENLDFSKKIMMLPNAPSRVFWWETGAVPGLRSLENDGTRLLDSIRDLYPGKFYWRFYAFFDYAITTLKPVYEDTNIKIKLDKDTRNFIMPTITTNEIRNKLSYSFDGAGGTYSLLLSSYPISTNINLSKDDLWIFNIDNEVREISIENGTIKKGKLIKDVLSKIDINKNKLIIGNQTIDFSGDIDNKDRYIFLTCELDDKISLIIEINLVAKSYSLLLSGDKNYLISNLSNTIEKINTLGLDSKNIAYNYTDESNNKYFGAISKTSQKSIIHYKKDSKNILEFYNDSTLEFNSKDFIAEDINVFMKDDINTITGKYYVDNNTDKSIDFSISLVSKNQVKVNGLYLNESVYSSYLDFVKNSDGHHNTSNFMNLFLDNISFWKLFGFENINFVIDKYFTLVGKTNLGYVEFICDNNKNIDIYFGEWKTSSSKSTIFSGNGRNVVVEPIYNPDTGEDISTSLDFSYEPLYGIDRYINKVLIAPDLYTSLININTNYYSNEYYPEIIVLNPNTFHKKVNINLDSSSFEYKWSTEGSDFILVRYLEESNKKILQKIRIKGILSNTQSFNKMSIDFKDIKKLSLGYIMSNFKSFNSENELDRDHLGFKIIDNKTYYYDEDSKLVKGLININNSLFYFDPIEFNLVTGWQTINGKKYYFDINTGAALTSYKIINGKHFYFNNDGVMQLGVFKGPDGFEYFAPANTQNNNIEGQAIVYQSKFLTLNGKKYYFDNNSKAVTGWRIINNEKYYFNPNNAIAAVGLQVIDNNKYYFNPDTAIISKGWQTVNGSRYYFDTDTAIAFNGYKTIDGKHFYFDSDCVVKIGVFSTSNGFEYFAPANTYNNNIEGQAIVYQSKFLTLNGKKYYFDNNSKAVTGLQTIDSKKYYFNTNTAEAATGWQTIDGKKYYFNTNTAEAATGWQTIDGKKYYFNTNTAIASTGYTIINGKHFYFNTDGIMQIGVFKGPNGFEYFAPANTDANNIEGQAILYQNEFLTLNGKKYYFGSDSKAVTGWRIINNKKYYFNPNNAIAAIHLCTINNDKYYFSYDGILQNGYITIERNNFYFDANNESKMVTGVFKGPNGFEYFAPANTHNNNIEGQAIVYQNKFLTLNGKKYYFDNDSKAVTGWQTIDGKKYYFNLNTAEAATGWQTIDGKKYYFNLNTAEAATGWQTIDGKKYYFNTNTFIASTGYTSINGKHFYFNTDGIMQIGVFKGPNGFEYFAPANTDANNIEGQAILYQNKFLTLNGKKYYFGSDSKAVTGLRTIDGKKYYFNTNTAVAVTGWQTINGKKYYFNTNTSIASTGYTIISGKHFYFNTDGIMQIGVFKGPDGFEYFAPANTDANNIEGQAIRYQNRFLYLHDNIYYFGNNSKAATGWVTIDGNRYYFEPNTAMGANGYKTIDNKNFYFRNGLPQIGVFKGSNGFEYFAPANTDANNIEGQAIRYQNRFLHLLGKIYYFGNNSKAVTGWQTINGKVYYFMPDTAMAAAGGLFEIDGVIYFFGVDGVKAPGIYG
T1 sequence (P18177 1827-2366 limits assumed): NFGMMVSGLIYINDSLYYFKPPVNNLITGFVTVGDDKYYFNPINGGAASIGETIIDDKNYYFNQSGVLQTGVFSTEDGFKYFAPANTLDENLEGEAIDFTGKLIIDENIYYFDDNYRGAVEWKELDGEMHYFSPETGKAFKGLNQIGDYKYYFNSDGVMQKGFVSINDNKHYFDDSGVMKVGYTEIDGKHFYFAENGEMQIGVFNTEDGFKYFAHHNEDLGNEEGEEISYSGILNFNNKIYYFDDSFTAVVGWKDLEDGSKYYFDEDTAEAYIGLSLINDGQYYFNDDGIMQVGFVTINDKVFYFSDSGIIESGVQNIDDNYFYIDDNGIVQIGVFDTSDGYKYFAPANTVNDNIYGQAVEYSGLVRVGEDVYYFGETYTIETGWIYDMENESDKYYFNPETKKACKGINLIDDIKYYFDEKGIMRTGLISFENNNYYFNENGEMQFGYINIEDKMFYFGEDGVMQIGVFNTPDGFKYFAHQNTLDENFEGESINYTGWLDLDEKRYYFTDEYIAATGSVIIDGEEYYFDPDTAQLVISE

B1: B2F11 (VHH)
VHH: QVQLQESGGGLVQAGGSLTLSCTASGFTFSNYVMSWYRQAPGKEREWVASVSESGQSRTYADSVKGRFTISRDNTNFSVYLQMNNLNSEDTAVYYCNTGSRTYGARYWGQGTQVTVSS
With B1, the binding result in experiment [1] was “binds”. Besides, in experiment [2], the “EC50 (nM), TcdB neutralization, Vero cells” value was 15.6 nM.

B2: B1A11 (VHH)
VHH: QVQLQESGGGVVQPGGSLRLTCTSSRSINIYVAMGWYRQAPGKQRERVATAHKDGGTRYSDSVKGRFTISRDDDKNTVYLQMNNLEPGDTAVYYCNAFGSSAWGQGTQVTVSS
Take B2: the binding result in experiment [1] is reported as “binds”. For the same molecule, the “EC50 (nM), TcdB neutralization, Vero cells” value in experiment [2] was 38.4 nM.

B3: A1A6 (VHH)
VHH: QVQLQESGGGSVQAGGSLRLSCAASGFIDDDYAIGWFRQAPGKEREGISCISSSNGKIHYADSVKGRFTISEDIAKKTVYLQMNFLKPEDTAVYYCAAETRGWSYCSGYGWSRYKYWGQGTQVTVSS
notes: also called Nb A1A6; A1A6-Avi
As for B3, in experiment [3], the binding result is listed as “binds”.

B4: A1G4 (VHH)
VHH: QVQLQESGGGLVQAGGSLRLSCAVSGRTLNSYAMGWFRQALGKEREFVAGISRAGGMTRYTDSVKGRFTISRDDAKNTVYLQMNSLKPDDTAVYSCAASFALVDSAGAYDYWGQGTQVTVSS
For B4, in experiment [4], the “EC50 (nM), TcdA neutralization, T84 cells” value (shortened to “EC50 (nM) … T84 cells”) was determined as 844 nM and the “EC50 (nM), TcdA neutralization, Vero cells” value turned out to be 8.5 nM. Further, the binding result with TcdA-GTD (TcdA1-542) is recorded as “no binding”.

B5: A2G5 (VHH)
VHH: B4 VHH with N30S, A54G, F100Y, V103I, S105M, A106S, G107S
For B5, in experiment [4], the “EC50, TcdA neutralization, T84 cells” value was over 10000 nM. Besides, in the experiment with TcdA-GTD (TcdA1-542), the binding result is given as “no binding”.

B6: A2G6 (VHH)
VHH: QVQLQESGGGLVQAGGSLRLSCAASGRTFSRIAMGWFRQVPGKEREFVAGISGNGGTFYTDSVKGRFTISRDNTKNTVYLQMNSLRPEDTAVYYCAADPNYRATYFPYGMDYYGRGTQVTVSS
Turning to B6, in experiment [4], the “EC50 (nM) … T84 cells” value was found to be 9.2 nM and the “EC50 (nM), TcdA neutralization, Vero cells” value is under 1 nM. For the same molecule, the binding result with TcdA-GTD (TcdA1-542) is on record as “no binding”.

B7: A1C3 (VHH)
VHH: QVQLQESGGGLVQPGGSLRLSCAASGRIFSIKSMGWYRQAPGKQRELVADITSGGSTNYADSVKGRFTISRDSAWNTVYLQMNSLKPEDTAVYYCRRVVVTPYPDEYEYDYWGQGTQVTVSS
notes: also called Nb A1C3
Regarding B7, the binding result is recorded as “binds” in the experiment with TcdA1-1832, “binds” with TcdA1-1809, “binds” in experiment [5] and “no binding” with TcdA-GTD (TcdA1-542).

B8: A1F4 (VHH)
VHH: QVQLQESGGGLVQAGGSLRLSCTASGRTFTTYNWAWFCQAPGKEREFVAAITGLTRHTYYADSVKGRFTISRDNAKNTVYLQMNSLKPEDTAVYFCAVSSGGDLNERVNYEYWGQGTQVTVSS
As to B8, the “EC50, TcdA neutralization, T84 cells” value in experiment [4] was over 10000 nM. Also, in the experiment with TcdA-GTD (TcdA1-542), the binding result is recorded as “no binding”.

B9: A2H9 (VHH)
VHH: QVQLQESGGGLVQAGGSLRLSCAASGRASSTYVMAWFRQAPGKEREFVAADTWGGAGTYYAPSVKGRFTISRDNAKNMLYLQMNSLKPEDTAAYYCAAGQGRSVTLFQPSTYDYWGQGTQVTVSS
In the case of B9, in experiment [4], the “EC50 (nM) … T84 cells” value amounted to 105 nM and the “EC50 (nM), TcdA neutralization, Vero cells” value was found to be 8.7 nM. In the experiment with TcdA-GTD (TcdA1-542), the binding result is “no binding”.

These data come from US20250179155A1 (VANDERBILT UNIVERSITY, published 2025).
